Source: patent publication US7732178B2, “Laccase enzymes and their uses” (AB Enzymes Oy, priority 2004, dated 2010)
Entries after “also recorded” stand apart in the source; their conditions may differ.

How the values were obtained:
[1] = Specific activity towards di-methoxy-phenol (DMP); format: biochemical; details: 25 mM MES buffer, pH 5.5
Procedure: Specific activities of the purified T. arenaria and C. thermophilum laccases were determined towards different laccase substrates.

[2] = Redox potential of T1 copper, photometric copper titration; format: physicochemical; details: 0.1 M KH2PO4 (pH 6.0)
Procedure: The purified recombinant Thielavia and Chaetomium laccases were characterized in terms of pH optimum, thermal stability, and pI as described in Example 2. The molecular weight was determined by MALDI-TOF mass spectrometry on a Ultraflex™ time-of-flight instrument (BrukerDaltonics, Germany) as previously described (Palonen et al., 2003). The redox-potentials of the T1 coppers of for CtLcc, and TaLcc2 laccases were determined by photometric copper titration in 0.1 M KH2PO4 (pH 6.0) as described by Xu et al. (1996) using the redox titrant couple K3Fe(CN)6/K4Fe(CN)6. The redox potential of TaLcc1 was determined with a combined Pt—AgCl/KCl microelectrode at pH 5.0 according to Sigoillot et al (2004). The characterization results are collected to Table 14.

[3] = Denim bleaching at different pH values; set-up: key to After laccase treatment L* / After laccase treatment b* / Increase of L*: CIE L*a*b* colour coordinates (illuminant D65), Minolta reflectance; details: for After laccase treatment L* / After laccase treatment b* / Increase of L*: face side of denim, 30 min, 50° C.
Procedure: Lee Cooper jeans (MASI Company Oy, Finland) that were desized and treated with neutral ECOSTONE® cellulase were used as test material. Laccase treatments were performed in LP-2 Launder Ometer as follows. About 10 g of denim swatches (15×14 cm) were loaded into 1.2 liter containers containing 200 ml Mc Ilvaine's citrate phosphate buffer pH 5, 6 or 7 and the containers were temperated. Enzyme with or without the mediator (methyl syringate, DeniLite II Assist, Novozymes) was added as laccase activity units. Enzyme was dosed 200 nkat/g and the mediator 10 mg/g on the weight of fabric. […] The Launder Ometer was run at 50° C. for 30 min and after that the temperature in Launder was raised to 80° C. for 10 min. The swatches were carefully rinsed with warm water, dried half-dry in a tumbler and after that air dried.
The bleaching effect was evaluated by measuring the colour as reflectance values with the Minolta Chromameter CM 1000 (Minolta Co.) using L*a*b* color space coordinates (illuminant D65). The colour from both sides of the swatches was measured before and after the laccase treatment. Each measurement was the average of several measurements.

[4] = Stain removal, grass soiling; set-up: key to Grass L* / Grass a* / Grass b*: CIE L*a*b* color coordinates from reflectance; details: for Grass L* / Grass a* / Grass b*: 60 min, pH 6
Procedure, shortened: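 Soiled swatches treated in McIlvaine citrate-phosphate buffer pH 6 for 60 min at 40, 50 or 60 °C. Laccase 200 nkat/g ± methyl syringate mediator 10 mg/g fabric (also 20 nkat/g and 2 mg/g at 40 °C). Stain removal from L*a*b* reflectance before versus after treatment.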

Decolorization of dyes [5] = experiment: Decolorization of dyes; set-up: key to Decolorization of Cibacron Brilliant Red 3B-P, Time 30 min / Decolorization of Cibacron Brilliant Red 3B-P, Time 60 min: −: no visually detectable change; +: visually detectable fading of the colour; ++: considerable fading of the colour; +++: complete/almost complete decolorization; details: for Decolorization of Cibacron Brilliant Red 3B-P, Time 30 min / Decolorization of Cibacron Brilliant Red 3B-P, Time 60 min: dye 5 mg/50 ml, enzyme 100 nkat/50 ml, 50° C., pH 6
Procedure: (§1) The recombinant laccases CtLcc1, TaLcc2 and TaLcc4, derived from Trichoderma strains (Example 7) were tested for their ability to decolorize different dyes in the presence of the methyl syringate mediator (Example 7) or without it. The experiments were carried out in 100 ml shake flasks containing 50 ml of dye dissolved in citrate phosphate buffer pH 6. Dye concentration 5 mg/50 ml was used. Enzyme was dosed 100 nkat per 50 ml and the mediator 5 mg per 50 ml. Control samples contained only dye solution. The shake flasks were incubated at 50° C. for 30, 60 and 120 minutes. Samples of 3.5 ml were taken in test tubes for visual evaluation.

Decolorization of dyes [6] = experiment: Decolorization of dyes; set-up: key to Decolorization of Indigocarmine, Time 30 min / Decolorization of Indigocarmine, Time 60 min: −: no visually detectable change; +: visually detectable fading of the colour; ++: considerable fading of the colour; +++: complete/almost complete decolorization; details: for Decolorization of Indigocarmine, Time 30 min / Decolorization of Indigocarmine, Time 60 min: dye 5 mg/50 ml, enzyme 100 nkat/50 ml, 50° C., pH 6
Procedure: as §1

[7] = pH 5, enzyme 200 nkat/g without the mediator, or mediator 10 mg/g alone
[8] = pH 5, enzyme 200 nkat/g, mediator 10 mg/g
[9] = pH 6, enzyme 200 nkat/g without the mediator, or mediator 10 mg/g alone
[10] = pH 6, enzyme 200 nkat/g, mediator 10 mg/g
[11] = pH 7, enzyme 200 nkat/g without the mediator, or mediator 10 mg/g alone
[12] = pH 7, enzyme 200 nkat/g, mediator 10 mg/g
[13] = 40° C., enzyme 20 nkat/g + mediator 2 mg/g (Mediator only: 0 nkat/g)
[14] = 40° C., enzyme 200 nkat/g + mediator 10 mg/g (Mediator only: 0 nkat/g)
[15] = 40° C., enzyme 200 nkat/g, mediator 0 mg/g
[16] = 60° C., enzyme 200 nkat/g + mediator 10 mg/g (Mediator only: 0 nkat/g)
[17] = 60° C., enzyme 200 nkat/g, mediator 0 mg/g
[18] = in the presence of the mediator

B1: CtLcc1: Chaetomium thermophilum ALKO 4265 laccase, SEQ ID NO: 47, produced in Trichoderma reesei (protein)
chain: MKFLTYATALLGALTAVVGAIPTRSGTKKKYIRDGPGPCHTPSNRACWAPGFDINTDYEVNTPNTGVTRNYTLTLTEEDNWTGPDGVVKEKIMLVNGKTLGPTIEANWGDWIEVKVINNLLTNGTSIHWHGIHQKGSNLHDGANGVTECPIPPNGGQRTYRFRAQQYGTSWYHSHFSAQYGNGIVGPIVIHGPASLPYDIDLGPFPLTDYYYKSADELVRHTQNNGPPFSDNVLFNGTGVHPQTGHGQYAKVTLTPGKRHRLRIINMSTENHFQVSLVGHQFTVIAADMVPVHSYTTDSLFLAVGQRYDVTIDASQTPGNYWFNVTFGGGFACGGSFNPNPAAIFHYEGAPDALPTDPGVPPRDHNCLDTLDLVPVVPRNVQVNQFVKKPENTLPVELSLGGTPLFVWKVNGSAIDVDWGNPVLQYVMDRNTSYRQADNIVEVNGVNQWTYWLIENDPNGAFSLPHPMHLHGHDFLIVGRSPDVPPGSNQRYNFDPATDIYRLRGQNPTRRDVAMLPAGGWLLLAFLTDNPGAWLFHCHIAWHVSGGLSVDFLERPNDLRNSILQHDKDEFNRVCNEWRTYWPNSPHPKIDSGLKHRWVEESEWLVR
modifications: Chaetomium thermophilum ALKO4265; (1)..(607) Deduced amino acid sequence of Chaetomium thermophilum ALKO4265 CtLcc1
In the case of B1, the “Specific activity on DMP” value [1] is reported as 290 nkat/mg, the “E^0” value [2] is reported as 480 mV and the “After laccase treatment L*” value [3, 7] is reported as 28.88. The “After laccase treatment b*” value [3, 7] was −18.65, the “Increase of L*” value [3, 7] was 0.46 and the “After laccase treatment L*” value [3, 8] was 35.07. The “After laccase treatment b*” value [3, 8] was −18.38, the “Increase of L*” value [3, 8] was 5.91 and the “After laccase treatment L*” value [3, 9] was 28.83. The “After laccase treatment b*” value [3, 9] was −18.53, the “Increase of L*” value [3, 9] was −0.13 and the “After laccase treatment L*” value [3, 10] was 40.08. For the same molecule, the “After laccase treatment b*” value [3, 10] was −17.18, the “Increase of L*” value [3, 10] was 11.19 and the “After laccase treatment L*” value [3, 11] was 29.32. For the same molecule, the “After laccase treatment b*” value [3, 11] was −18.52, the “Increase of L*” value [3, 11] was 0.73 and the “After laccase treatment L*” value [3, 12] was 36.69. For the same molecule, the “After laccase treatment b*” value [3, 12] was −17.88, the “Increase of L*” value [3, 12] was 8.31 and the “decolorization of indigo dye of denim compared to DeniLite II Base” value ([3]; pH values 6 and 7, with mediator) was “more efficient”. The “Grass L*” value [4, 13] was 79.94, the “Grass a*” value [4, 13] was −1.20 and the “Grass b*” value [4, 13] was 16.17. The “Grass L*” value [4, 14] was 79.74, the “Grass a*” value [4, 14] was 0.17 and the “Grass b*” value [4, 14] was 16.48. The “Grass L*” value [4, 15] was 80.17, the “Grass a*” value [4, 15] was −4.14 and the “Grass b*” value [4, 15] was 17.45. The “Grass L*” value [4, 16] was 79.92, the “Grass a*” value [4, 16] was −1.15 and the “Grass b*” value [4, 16] was 18.55. The “Grass L*” value [4, 17] was 79.04, the “Grass a*” value [4, 17] was −3.69 and the “Grass b*” value [4, 17] was 18.12. The “removal of grass soiling with the mediator” value ([4]; CtLcc1 at 60° C., TaLcc2 at 50° C.) was “effective”, the “Decolorization of Cibacron Brilliant Red 3B-P, Time 30 min” value (Decolorization of dyes [5]; mediator 0 mg/50 ml) was “−” and the “Decolorization of Cibacron Brilliant Red 3B-P, Time 60 min” value (Decolorization of dyes [5]; mediator 0 mg/50 ml) was “−”. The “Decolorization of Cibacron Brilliant Red 3B-P, Time 30 min” value (Decolorization of dyes [5]; mediator 5 mg/50 ml) was “+”, the “Decolorization of Cibacron Brilliant Red 3B-P, Time 60 min” value (Decolorization of dyes [5]; mediator 5 mg/50 ml) was “+” and the “decolorization of Cibacron Brilliant Red 3B-P” value (Decolorization of dyes [5]; [18]) was “partly decolorized”. For the same molecule, the “Decolorization of Indigocarmine, Time 30 min” value (Decolorization of dyes [6]; mediator 0 mg/50 ml) was “−”, the “Decolorization of Indigocarmine, Time 60 min” value (Decolorization of dyes [6]; mediator 0 mg/50 ml) was “−” and the “Decolorization of Indigocarmine, Time 30 min” value (Decolorization of dyes [6]; mediator 5 mg/50 ml) was “+++”. The “Decolorization of Indigocarmine, Time 60 min” value (Decolorization of dyes [6]; mediator 5 mg/50 ml) was “+++” and the “decolorization of Indigocarmine” value (Decolorization of dyes [6]; [18]) was “very effectively; also recorded: to great extend or completely”.
